From patent US20120324602A1 come the findings set out here.

Assay [1] deals with T1, actin-related protein 4 (ARP4) (Arabidopsis thaliana).
T1 sequence (Q84M92 1-441, looked up): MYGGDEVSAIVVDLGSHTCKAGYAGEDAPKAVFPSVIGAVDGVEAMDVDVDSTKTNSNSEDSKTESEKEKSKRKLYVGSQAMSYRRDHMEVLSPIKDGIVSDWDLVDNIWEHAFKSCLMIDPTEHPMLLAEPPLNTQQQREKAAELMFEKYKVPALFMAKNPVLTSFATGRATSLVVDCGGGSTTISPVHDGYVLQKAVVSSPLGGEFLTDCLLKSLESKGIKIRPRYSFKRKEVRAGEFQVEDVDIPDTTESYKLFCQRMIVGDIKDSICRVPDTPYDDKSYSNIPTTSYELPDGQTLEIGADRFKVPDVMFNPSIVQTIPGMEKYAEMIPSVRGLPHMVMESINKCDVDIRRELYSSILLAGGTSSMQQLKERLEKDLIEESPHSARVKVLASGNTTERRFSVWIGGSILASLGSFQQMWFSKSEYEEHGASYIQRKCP
Kind of assay: TAP-MS, N-terminal GS tag.

In assay [2] the target is T2, actin-related protein 7 (ARP7) (Arabidopsis thaliana).
T2 sequence (Q8L4Y5 1-363, looked up): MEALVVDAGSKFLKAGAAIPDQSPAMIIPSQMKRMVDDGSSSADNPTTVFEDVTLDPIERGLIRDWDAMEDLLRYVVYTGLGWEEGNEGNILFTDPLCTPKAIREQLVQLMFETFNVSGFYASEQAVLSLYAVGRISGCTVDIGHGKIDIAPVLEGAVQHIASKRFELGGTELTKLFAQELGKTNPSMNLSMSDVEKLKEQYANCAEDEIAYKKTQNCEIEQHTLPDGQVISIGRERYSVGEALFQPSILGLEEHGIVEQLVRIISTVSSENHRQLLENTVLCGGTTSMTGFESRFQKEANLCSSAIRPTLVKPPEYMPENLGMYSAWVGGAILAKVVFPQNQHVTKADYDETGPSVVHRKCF
Kind of assay: TAP-MS, N-terminal GS tag.

For assay [3], the target named is expressed protein, similar to At3g03460 (AT5G17510) (Arabidopsis thaliana). Kind of assay: TAP-MS, N-terminal GS tag.
Assay [4] addresses RD21 (RESPONSIVE TO …ON 21) (Arabidopsis thaliana). Kind of assay: TAP-MS, N-terminal GS tag.
The target in assay [5] is CKA2 (casein kinase II alpha chain 2) (Arabidopsis thaliana). Kind of assay: TAP-MS, N-terminal GS tag.
The target in assay [6] is CRU1 (CRUCIFERINA) (Arabidopsis thaliana). The experiment in a line: TAP-MS, N-terminal GS tag.
Assay [7] has as its target BSH (Arabidopsis thaliana). Kind of assay: TAP-MS, N-terminal GS tag.
In assay [8] the target is SNF2 protein (BRM) (Arabidopsis thaliana). The experiment in a line: TAP-MS, N-terminal GS tag.
The target of assay [9] is SWI3B (Arabidopsis thaliana). Kind of assay: TAP-MS, N-terminal GS tag.
The target of assay [10] is electron carrier (AT1G32730) (Arabidopsis thaliana). The experiment in a line: TAP-MS, N-terminal GS tag.
For assay [11], the target named is LFR (armadillo-repeat protein) (Arabidopsis thaliana). The experiment in a line: TAP-MS, N-terminal GS tag.
In assay [12] the target is SWI3A (Arabidopsis thaliana). The experiment in a line: TAP-MS, N-terminal GS tag.
Assay [13] has as its target unknown, similar to At5g55210 (AT4G22320) (Arabidopsis thaliana). Kind of assay: TAP-MS, N-terminal GS tag.
Assay [14] addresses DNA-binding bromodomain-containing protein (AT1G20670) (Arabidopsis thaliana). The experiment in a line: TAP-MS, N-terminal GS tag.
Assay [15] addresses CHR12 (Arabidopsis thaliana). The experiment in a line: TAP-MS, N-terminal GS tag.
The target of assay [16] is T3, SWIRM domain-containing protein (SWI3C) (Arabidopsis thaliana).
T3 sequence (Q9XI07 1-807, looked up): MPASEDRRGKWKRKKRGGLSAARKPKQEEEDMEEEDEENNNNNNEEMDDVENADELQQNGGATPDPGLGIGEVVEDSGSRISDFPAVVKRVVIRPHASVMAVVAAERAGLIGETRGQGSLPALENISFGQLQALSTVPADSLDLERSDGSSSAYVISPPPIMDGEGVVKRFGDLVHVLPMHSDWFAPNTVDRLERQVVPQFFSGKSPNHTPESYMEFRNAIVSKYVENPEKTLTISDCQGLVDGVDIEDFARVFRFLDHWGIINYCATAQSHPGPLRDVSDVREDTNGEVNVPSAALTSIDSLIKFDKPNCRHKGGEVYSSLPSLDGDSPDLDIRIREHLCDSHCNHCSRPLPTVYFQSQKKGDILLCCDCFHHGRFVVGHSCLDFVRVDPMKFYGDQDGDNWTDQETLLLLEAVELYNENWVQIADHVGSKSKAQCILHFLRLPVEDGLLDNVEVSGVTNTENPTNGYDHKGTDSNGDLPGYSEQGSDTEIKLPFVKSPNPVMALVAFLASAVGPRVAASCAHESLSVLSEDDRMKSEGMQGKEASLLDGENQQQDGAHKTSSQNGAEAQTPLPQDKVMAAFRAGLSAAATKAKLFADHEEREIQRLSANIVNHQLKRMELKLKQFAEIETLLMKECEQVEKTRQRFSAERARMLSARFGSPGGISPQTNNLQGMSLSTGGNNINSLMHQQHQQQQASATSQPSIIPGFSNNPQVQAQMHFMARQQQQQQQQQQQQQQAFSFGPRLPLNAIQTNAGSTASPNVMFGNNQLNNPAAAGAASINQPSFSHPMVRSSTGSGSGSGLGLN
Kind of assay: TAP-MS, N-terminal GS tag.

Assay [17] concerns the target transcription factor (AT3G18380) (Arabidopsis thaliana). The experiment in a line: TAP-MS, N-terminal GS tag.
In assay [18] the target is expressed protein, similar to At4g22320 (AT5G55210) (Arabidopsis thaliana). Kind of assay: TAP-MS, N-terminal GS tag.
In assay [19] the target is CRU3 (CRUCIFERIN 3) (Arabidopsis thaliana). Kind of assay: TAP-MS, N-terminal GS tag.
The target in assay [20] is unknown protein (AT1G06500) (Arabidopsis thaliana). The experiment in a line: TAP-MS, N-terminal GS tag.
In assay [21] the target is SWI3D (Arabidopsis thaliana). Kind of assay: TAP-MS, N-terminal GS tag.
Assay [22] concerns the target DNA-binding bromodomain-containing protein, similar to At1g20670 (AT5G55040) (Arabidopsis thaliana). The experiment in a line: TAP-MS, N-terminal GS tag.
For assay [23], the target named is T1, actin-related protein 4 (ARP4) (Arabidopsis thaliana). The experiment in a line: TAP-MS, C-terminal GS tag.
In assay [24] the target is T2, actin-related protein 7 (ARP7) (Arabidopsis thaliana). Kind of assay: TAP-MS, C-terminal GS tag.
Assay [25] addresses expressed protein, similar to At3g03460 (AT5G17510) (Arabidopsis thaliana). The experiment in a line: TAP-MS, C-terminal GS tag.
The target of assay [26] is RD21 (RESPONSIVE TO …ON 21) (Arabidopsis thaliana). The experiment in a line: TAP-MS, C-terminal GS tag.
Assay [27] concerns the target isocitrate dehydrogenase (AT5G03290) (Arabidopsis thaliana). Kind of assay: TAP-MS, C-terminal GS tag.
Assay [28] has as its target BSH (Arabidopsis thaliana). The experiment in a line: TAP-MS, C-terminal GS tag.
Assay [29] concerns the target SNF2 protein (BRM) (Arabidopsis thaliana). The experiment in a line: TAP-MS, C-terminal GS tag.
In assay [30] the target is SWI3B (Arabidopsis thaliana). Kind of assay: TAP-MS, C-terminal GS tag.
Assay [31] addresses electron carrier (AT1G32730) (Arabidopsis thaliana). The experiment in a line: TAP-MS, C-terminal GS tag.
The target in assay [32] is LFR (armadillo-repeat protein) (Arabidopsis thaliana). The experiment in a line: TAP-MS, C-terminal GS tag.
The target in assay [33] is SWI3A (Arabidopsis thaliana). Kind of assay: TAP-MS, C-terminal GS tag.
For assay [34], the target named is DNA-binding bromodomain-containing protein (AT1G20670) (Arabidopsis thaliana). The experiment in a line: TAP-MS, C-terminal GS tag.
In assay [35] the target is DNA-binding bromodomain-containing protein (AT1G58025) (Arabidopsis thaliana). The experiment in a line: TAP-MS, C-terminal GS tag.
The target of assay [36] is T3, SWIRM domain-containing protein (SWI3C) (Arabidopsis thaliana). The experiment in a line: TAP-MS, C-terminal GS tag.
The target in assay [37] is expressed protein, similar to At4g22320 (AT5G55210) (Arabidopsis thaliana). The experiment in a line: TAP-MS, C-terminal GS tag.
Assay [38] has as its target unknown protein (AT1G06500) (Arabidopsis thaliana). The experiment in a line: TAP-MS, C-terminal GS tag.
The target in assay [39] is SWI3D (Arabidopsis thaliana). The experiment in a line: TAP-MS, C-terminal GS tag.
Assay [40] has as its target DNA-binding bromodomain-containing protein, similar to At1g20670 (AT5G55040) (Arabidopsis thaliana). The experiment in a line: TAP-MS, C-terminal GS tag.

In the case of GS-Swp73B, the N-GS (times co-purified) came out at 2 in assay [1]; 2 in [2]; 2 in [3]; 2 in assay [4]; 1 in [5]; 1 in assay [6]. Further, the N-GS (times co-purified) in assay [7] was found to be 2; in assay [8], 2; in assay [9], 2; in [10], 2; in assay [11] it was 2; in [12], 3. For the same substance, the N-GS (times co-purified) in assay [13] is 1; in [14], 3; in assay [15], 1; in assay [16], 3; in [17], 2; in assay [18], 2. For the same substance, the N-GS (times co-purified) in assay [19] is 1; in assay [20], 2; in assay [21] it was 3; in assay [22], 1.

As to Swp73B-GS, the C-GS (times co-purified) amounted to 1 in [23]; 2 in assay [24]; 2 in [25]; 2 in assay [26]; 1 in assay [27]; 2 in assay [28]. The C-GS (times co-purified) in assay [29] came to 1; in assay [30] it was 2; in assay [31], 2; in assay [32], 2; in assay [33], 2; in assay [34], 2. Further, the C-GS (times co-purified) was determined as 1 in [35]; 1 in assay [36]; 2 in assay [37]; 1 in assay [38]; 1 in [39]; 1 in [40].
